Source: patent US20210403601A1 (FAPON BIOTECH, published 2021)

Target: T1, Taq DNA polymerase (Thermus aquaticus, UniProt P19821 1-832)
T1 construct: also called Taq enzyme; Taq DNA enzyme
Experiment: AMC sensor, antibody immobilised

T1 sequence (P19821 whole entry): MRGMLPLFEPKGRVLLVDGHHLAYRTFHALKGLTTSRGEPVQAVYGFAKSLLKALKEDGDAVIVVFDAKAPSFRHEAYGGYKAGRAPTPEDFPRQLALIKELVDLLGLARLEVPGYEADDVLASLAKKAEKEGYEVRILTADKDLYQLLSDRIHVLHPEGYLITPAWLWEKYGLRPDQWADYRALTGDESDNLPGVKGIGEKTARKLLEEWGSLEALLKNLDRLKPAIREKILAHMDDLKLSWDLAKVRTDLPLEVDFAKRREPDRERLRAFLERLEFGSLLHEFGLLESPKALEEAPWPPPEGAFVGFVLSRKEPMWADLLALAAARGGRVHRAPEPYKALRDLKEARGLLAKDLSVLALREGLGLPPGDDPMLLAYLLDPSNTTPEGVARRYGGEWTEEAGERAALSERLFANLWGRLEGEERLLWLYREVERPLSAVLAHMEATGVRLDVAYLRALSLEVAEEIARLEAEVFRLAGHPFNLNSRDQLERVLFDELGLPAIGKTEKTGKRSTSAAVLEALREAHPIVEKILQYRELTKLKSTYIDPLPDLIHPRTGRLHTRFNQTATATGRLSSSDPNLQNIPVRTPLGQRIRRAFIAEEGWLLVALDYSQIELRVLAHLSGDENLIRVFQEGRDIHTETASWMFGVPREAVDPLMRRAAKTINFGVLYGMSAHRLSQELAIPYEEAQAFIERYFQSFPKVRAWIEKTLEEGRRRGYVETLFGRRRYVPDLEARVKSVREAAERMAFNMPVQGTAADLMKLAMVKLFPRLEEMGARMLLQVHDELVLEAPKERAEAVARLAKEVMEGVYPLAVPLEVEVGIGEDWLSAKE

Kd [nM] | koff [s⁻¹] | kon [M⁻¹ s⁻¹] | Binder
0.926 | 3.94e-05 | 42600 | Mutation 1-33 (antibody, V domains shown, Mutation 1 background; CDRs built) VH: QVQLQQPGAELVKPGASVRLSCQTSVETFSTYYIYWVKQRPGEGLEWIGGINPTSGGPVFNEKFKSKATLTVDTSSSTAYMQLSSLTSVDSAVYYCTRSLLRRGYYFDYWGQGTALTVSS VL: DIQMTQTTSSLSASLGDRVTISCRASQDINNYLNWYQQKPDGTIKLLIYYTSRLQSGLPSRFSGSGSGTDYSLTIANLEQEDIATYFCQQDDTLPLTFGAGTKVELKR
0.382 | 2.68e-05 | 70200 | Mutation 1-37 (antibody, V domains shown, Mutation 1 background; CDRs built) VH: QVQLQQPGAELVKPGASVRLSCQTSVETFTTYYIYWVKQRPGEGLEWIGGLNPTSNPVFNEKFKSKATLTVDTSSSTAYMQLSSLTSVDSAVYYCTRSIVRRGYYFDYWGQGTALTVSS VL: DIQMTQTTSSLSASLGDRVTISCRASQDINNYVNWYQQKPDGTIKLLIYYTSRLHSGIPSRFSGSGSGTDYSLTIANLEQEDIATYFCQQDDTIPITFGAGTKVELKR
0.914 | 3.79e-05 | 41500 | Mutation 1-56 (antibody, V domains shown, Mutation 1 background; CDRs built) VH: QVQLQQPGAELVKPGASVRLSCQTSVDTFTTYYIYWVKQRPGEGLEWIGGINPTSGGPVFNEKFKSKATLTVDTSSSTAYMQLSSLTSVDSAVYYCTRSIIRRGYYFDYWGQGTALTVSS VL: DIQMTQTTSSLSASLGDRVTISCRASQDIQNYLNWYQQKPDGTIKLLIYYTSRLNSGLPSRFSGSGSGTDYSLTIANLEQEDIATYFCQQDDTIPLTFGAGTKVELKR
0.297 | 9.82e-06 | 33100 | Mutation 1-41 (antibody, V domains shown, Mutation 1 background; CDRs built) VH: QVQLQQPGAELVKPGASVRLSCQTSVDTFTTYYIYWVKQRPGEGLEWIGGVNPTSNPVFNEKFKSKATLTVDTSSSTAYMQLSSLTSVDSAVYYCTRSVIRRGYYFDYWGQGTALTVSS VL: DIQMTQTTSSLSASLGDRVTISCRASQDINNYINWYQQKPDGTIKLLIYYTSRLNSGVPSRFSGSGSGTDYSLTIANLEQEDIATYFCQQDDTVPVTFGAGTKVELKR
0.178 | 1.34e-05 | 75000 | Mutation 1-58 (antibody, V domains shown, Mutation 1 background; CDRs built) VH: QVQLQQPGAELVKPGASVRLSCQTSVETFTTYYIYWVKQRPGEGLEWIGGINPTSNPVFNEKFKSKATLTVDTSSSTAYMQLSSLTSVDSAVYYCTRSVVRRGYYFDYWGQGTALTVSS VL: DIQMTQTTSSLSASLGDRVTISCRASQDIQNYINWYQQKPDGTIKLLIYYTSRLQSGIPSRFSGSGSGTDYSLTIANLEQEDIATYFCQQDDTVPITFGAGTKVELKR
0.106 | 3.32e-06 | 31400 | Mutation 1-38 (antibody, V domains shown, Mutation 1 background; CDRs built) VH: QVQLQQPGAELVKPGASVRLSCQTSVNTFSTYYIYWVKQRPGEGLEWIGGVNPTSGGPVFNEKFKSKATLTVDTSSSTAYMQLSSLTSVDSAVYYCTRSIIRRGYYFDYWGQGTALTVSS VL: DIQMTQTTSSLSASLGDRVTISCRASQDIQNYLNWYQQKPDGTIKLLIYYTSRLNSGIPSRFSGSGSGTDYSLTIANLEQEDIATYFCQQDDTIPLTFGAGTKVELKR
0.198 | 1.71e-05 | 86100 | Mutation 1-49 (antibody, V domains shown, Mutation 1 background; CDRs built) VH: QVQLQQPGAELVKPGASVRLSCQTSVETFTTYYIYWVKQRPGEGLEWIGGLNPTSNPVFNEKFKSKATLTVDTSSSTAYMQLSSLTSVDSAVYYCTRSVVRRGYYFDYWGQGTALTVSS VL: DIQMTQTTSSLSASLGDRVTISCRASQDINNYVNWYQQKPDGTIKLLIYYTSRLQSGIPSRFSGSGSGTDYSLTIANLEQEDIATYFCQQDDTVPITFGAGTKVELKR
0.971 | 6.92e-05 | 71200 | Mutation 1-43 (antibody, V domains shown, Mutation 1 background; CDRs built) VH: QVQLQQPGAELVKPGASVRLSCQTSVETFTTYYIYWVKQRPGEGLEWIGGLNPTSNPVFNEKFKSKATLTVDTSSSTAYMQLSSLTSVDSAVYYCTRSLVRRGYYFDYWGQGTALTVSS VL: DIQMTQTTSSLSASLGDRVTISCRASQDINNYVNWYQQKPDGTIKLLIYYTSRLHSGLPSRFSGSGSGTDYSLTIANLEQEDIATYFCQQDDTLPITFGAGTKVELKR
0.0582 | 3.07e-06 | 52600 | Mutation 1-45 (antibody, V domains shown, Mutation 1 background; CDRs built) VH: QVQLQQPGAELVKPGASVRLSCQTSVNTFTTYYIYWVKQRPGEGLEWIGGINPTSGGPVFNEKFKSKATLTVDTSSSTAYMQLSSLTSVDSAVYYCTRSILRRGYYFDYWGQGTALTVSS VL: DIQMTQTTSSLSASLGDRVTISCRASQDINNYLNWYQQKPDGTIKLLIYYTSRLNSGVPSRFSGSGSGTDYSLTIANLEQEDIATYFCQQDDTIPLTFGAGTKVELKR
0.173 | 1.12e-05 | 64400 | Mutation 1-55 (antibody, V domains shown, Mutation 1 background; CDRs built) VH: QVQLQQPGAELVKPGASVRLSCQTSVDTFSTYYIYWVKQRPGEGLEWIGGVNPTSGGPVFNEKFKSKATLTVDTSSSTAYMQLSSLTSVDSAVYYCTRSIVRRGYYFDYWGQGTALTVSS VL: DIQMTQTTSSLSASLGDRVTISCRASQDINNYVNWYQQKPDGTIKLLIYYTSRLNSGIPSRFSGSGSGTDYSLTIANLEQEDIATYFCQQDDTIPITFGAGTKVELKR
0.0133 | 4.9e-06 | 369000 | Mutation 1-44 (antibody, V domains shown, Mutation 1 background; CDRs built) VH: QVQLQQPGAELVKPGASVRLSCQTSVNTFSTYYIYWVKQRPGEGLEWIGGVNPTSGGPVFNEKFKSKATLTVDTSSSTAYMQLSSLTSVDSAVYYCTRSLIRRGYYFDYWGQGTALTVSS VL: DIQMTQTTSSLSASLGDRVTISCRASQDIQNYLNWYQQKPDGTIKLLIYYTSRLNSGLPSRFSGSGSGTDYSLTIANLEQEDIATYFCQQDDTLPVTFGAGTKVELKR
0.384 | 3.8e-05 | 99000 | Mutation 1-53 (antibody, V domains shown, Mutation 1 background; CDRs built) VH: QVQLQQPGAELVKPGASVRLSCQTSVNTFSTYYIYWVKQRPGEGLEWIGGINPTSNPVFNEKFKSKATLTVDTSSSTAYMQLSSLTSVDSAVYYCTRSLIRRGYYFDYWGQGTALTVSS VL: DIQMTQTTSSLSASLGDRVTISCRASQDINNYINWYQQKPDGTIKLLIYYTSRLHSGLPSRFSGSGSGTDYSLTIANLEQEDIATYFCQQDDTLPVTFGAGTKVELKR
0.706 | 3.7e-05 | 52400 | Mutation 1-35 (antibody, V domains shown, Mutation 1 background; CDRs built) VH: QVQLQQPGAELVKPGASVRLSCQTSVDTFTTYYIYWVKQRPGEGLEWIGGVNPTSNPVFNEKFKSKATLTVDTSSSTAYMQLSSLTSVDSAVYYCTRSLIRRGYYFDYWGQGTALTVSS VL: DIQMTQTTSSLSASLGDRVTISCRASQDINNYINWYQQKPDGTIKLLIYYTSRLNSGLPSRFSGSGSGTDYSLTIANLEQEDIATYFCQQDDTLPVTFGAGTKVELKR
0.384 | 3.77e-05 | 98300 | Mutation 1-51 (antibody, V domains shown, Mutation 1 background; CDRs built) VH: QVQLQQPGAELVKPGASVRLSCQTSVNTFTTYYIYWVKQRPGEGLEWIGGINPTSGGPVFNEKFKSKATLTVDTSSSTAYMQLSSLTSVDSAVYYCTRSLLRRGYYFDYWGQGTALTVSS VL: DIQMTQTTSSLSASLGDRVTISCRASQDINNYLNWYQQKPDGTIKLLIYYTSRLHSGVPSRFSGSGSGTDYSLTIANLEQEDIATYFCQQDDTLPLTFGAGTKVELKR
